Assay results as given in the nanobody polyreactivity screen of Harvey et al. (2022).

Experiment: yeast display, Sf9 membrane polyspecificity reagent, FACS + sequencing; frameworks hold sequencing errors
How it was run: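 Synthetic nanobody libraries on Saccharomyces cerevisiae BJ5465 were galactose-induced for 36–48 hours, stained 1 hour at 4 °C with 10% biotinylated, detergent-solubilized Sf9 membrane reagent and enriched on streptavidin microbeads. FACS then separated cells into low and high (top ~1%) gates by anti-HA (expression) and streptavidin (reagent binding) fluorescence. Genes were colony-PCR amplified, MiSeq 2 × 250 sequenced and CDR-length filtered. A clone's polyreactivity label is that of its gate of origin.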

| Sequence | polyreactivity (PSR sort gate) |
| --- | --- |
| QVQLVESGGGLVQAGGRLRLSCAASGSIFSRNAMGWDRQAPGQERELVAAITRSGGRTYYADSVKGRCTLSRDNAKTTVYLQMNSLKPEDTAVYYCNALASQEYDYWGQGTQVTVSS | high polyreactivity |
| QVQLVESGGGLVQAGGRLRLSCAASGSIFSRYAMGWYRQAPGKERELVAAITSRGSGTNYADSVKGRFTISRDNAKNTVYLQMNSLKPEDTAVYYCNAARLPRLGWPTPYLYDYWGQGTQVTVSS | high polyreactivity |
| QVQLVESGGGLVQAGGRLRLSCAASGSIFSYNAMGWYRQAPGKEREVVATISWSGGSTYYADSVKGPFTISRDYAKNTVFLQMNSLKPEDTGGYSCAARKYGQRYRRDYWGQGTQVTVSS | low polyreactivity |
| QVQLVESGGGLVQAGGRLRLSCAASGSIFTYYVMGWYRQAPGKERELVAAITISGGSTYYADSVKGRFTISRDNAKNTVYLQMNRLNPEDTAVYYCAAEEVYYEADGFQNSYDYWGQGTQVTVSS | high polyreactivity |
| QVQLVESGGGLVQAGGRLRLSCAASGSIFVPNAMGWYRQALGKDRELVAAITYSGVDTYYADSVMGRFTISRDNAKNTVYLQMNSLKPEDTAVYYCAADNGRVGYDYWGQGTQVSVSS | low polyreactivity |
| QVQLVESGGGLVQAGGRLRLSCAASGSIFVYNALGWYRQAPGKQRELVAGITFIGGSTYYAESVKGRFTISRDNAKNTVYVQMNSRKPEDTAVYYCNKFPVSPPSYYWGQGTQVTVSS | low polyreactivity |
| QVQLVESGGGLVQAGGRLRLSCAASGSIFYYNVMGWYRQAHGKQRELVAAITWSGGTTYYADSVKGRFTISRDNAKNTVYLQMNSLKPEDTAVYYCIAASPYSWGYRRGYLGQGTQVTVSS | high polyreactivity |
| QVQLVESGGGLVQAGGRLRLSCAASGSIISYYAMGWYRQAPGKERELVATITSSGSTYADSVKGRFTISRDNAKNTVYLQMNSLKPEDTAVYYCNADSGYSEYWGVDVAYDYWGQGTQVTVSS | low polyreactivity |
| QVQLVESGGGLVQAGGRLRLSCAASGSILNFYAMGWYRQAPGKEREFVASISWDGASTYYADSVKGRFTISRDNAKNTVYLPMNSLKPEDTAVYYCAATRYYSFWGQGTQVTVSS | low polyreactivity |
| QVQLVESGGGLVQAGGRLRLSCAASGSNFGLNALGWYRQAPGKERELVAAINSDADTYYADSVKGRFTISRDNAKNTVYLQMNSQKPADTAVYYCAADYYWDPFDSNFGHVPQEYESWGQGTQVTVSS | low polyreactivity |
| QVQLVESGGGLVQAGGRLRLSCAASGSTFDPNAEGWYRPAPGKARELVAVIDSGDGTTYYADSVKGRVTISRDKAKNTVYLQMNSLKPEDTAVYYCAAEFHWWYAGYDYGYWGQGTQVTVSS | low polyreactivity |
| QVQLVESGGGLVQAGGRLRLSCAASGSTFDVYAMGWYRQAPGKERELVAVINTSGTRTYYADSVKGRFTISRDNAKNTVYLQRNSLKPEDTAVYYCNAGGHLEMNYWGQGTQVTVSS | low polyreactivity |
| QVQLVESGGGLVQAGGRLRLSCAASGSTFEVNAMGWYRQAPGKERELVAAISSSAGDTYYADSVKGRFTISRDNAKYTVYLQMNSLKPEDTAVYYCAADYGYSPFDYWGQGTQVTVSS | low polyreactivity |
| QVQLVESGGGLVQAGGRLRLSCAASGSTFIDYAMGWYIHAPGKERELVAAITWDGSSTYYADSVKGRFTISRDNAKNTVYLQMNSLKPEDTAVYYCATDYAGQYPVDGQPIHDYWGQGTQVTVSS | low polyreactivity |
| QVQLVESGGGLVQAGGRLRLSCAASGSTFKSYVMGGSRQAPGKERELVAAISSGDSTYYADSVKGRFTISRDNAKNTVNLQMNSLKPEDTAVYYCAADPGYTVEPWEDDYWGQGTQVTVSS | low polyreactivity |
| QVQLVESGGGLVQAGGRLRLSCAASGSTFPTNVMGWYRQAPGKERELVAAITKRGSITYYADSVKGRFTISRDNAKNTVYLQMNSLKPEDTAVYYCAARKVAVRGYGYWGQGTQVTVSS | high polyreactivity |
| QVQLVESGGGLVQAGGRLRLSCAASGSTFRPYAMGWYRQAPGKERELVAAITFNGDTYADSVKGRFTISRDNAKNTVYLQMNSLKPEDTAVYYCAARKWYYYLRPWTSVGGYYWGQGTQVTVSS | high polyreactivity |
| QVQLVESGGGLVQAGGRLRLSCAASGSTFSRYAMGWYRQAPGKERELVAAISWSGGITYYADSVKGRFTISRDNAKNTVYLQMNSLKPEDTAVYYCAARSRSWSGERGYWGQGTQVTVSS | high polyreactivity |
| QVQLVESGGGLVQAGGRLRLSCAASGSTFVGNAMGWYRQAPGKERELVAAIRKSGGRTYYADSVKGRFTISRDNAKNTVYLQMNSLKPEDTEVYYCAVDRLLYYLIYYRAGVEGGYWGQGTQVTVSS | high polyreactivity |
| QVQLVESGGGLVQAGGRLRLSCAASGSTFVYNAMGWYRPAPGKERELVAAISRSGGRTYYADSVKGRFTISRDNAKNSVYLQMNSLKPEDTAVYYCAVLLRGIEYDYWGQGTQVTVSS | high polyreactivity |
| QVQLVESGGGLVQAGGRLRLSCAASGSTFYLNAMGWYRPAHGKERELVAAITRIGGSTYYADSVKGRFTISRDNAKNTVYLQMYSLTPEDTAVYYCAKDYGQARHDRYGYWGAGTQVTVSS | low polyreactivity |
| QVQLVESGGGLVQAGGRLRLSCAASGSTFYLNAMGWYRQAPGQERELVAAINGGGSTNYADSVKGRFTISRDNAKNTVYLQRNSLKPEDTAVYYCAAETSYANRDRFDYWGQGTQVTVSS | low polyreactivity |

| Sequence | polyreactivity (PSR sort gate) |
| --- | --- |
| QVQLVESGGGLVQAGGRLRLSCAASGSTLDTYAMGWYRQAPGKERELVAGITWSGGSTYYADSVKGRFTISRDNAKNTVYLQMNSLKPEDTAVYYCAAYSPYGPRYDYWGQGTQVTVSS | low polyreactivity |
| QVQLVESGGGLVQAGGRLRLSCAASGSTLGYYTMGWYRQAPGKERELVAANTRSGGSTYYADSVKGRFTISRDNAKNTVYLQMNSLKPEDTAVYYCAAAWTRFRIYDYWGQVTQVTVSS | high polyreactivity |
| QVQLVESGGGLVQAGGRLRLSCAASGSTLSANAMGWYSPAPGKERELVAAISRRSGGTYYADSVKGRFTISRDNAKNSVYLQMNSLKPEDTAVYYCIKVLKDPHTWGWVDYDYCGQGTQVTVSS | high polyreactivity |
| QVQLVESGGGLVQAGGRLRLSCAASGSTLYPNAMGWSRQAPGKDRELVAAISSGSSTYADSVKGRFTISRDNAKNTVYLQMNSLKPADTAVYYCNADAPIHYDYWGQGTQVTVSS | low polyreactivity |
| QVQLVESGGGLVQAGGRLRLSCAASGYIFKSYVMGWYRQAPGKERELVAAITWSGGSTYYADSVKGRFTISRDNAKNTVYLQMNSLKPEDTAVYYCAAYPRRYRTTYDYWGQGTQVTVSS | high polyreactivity |
| QVQLVESGGGLVQAGGRLRLSCAASGYIFYYNAIGWYRQAPGKERELVAAITSDDSTYYADSVKGRFTISRDNAKNTVYLQMNSLKPEDTAVYYCNAVRYGHWYDYWGQGTQVTVSS | low polyreactivity |
| QVQLVESGGGLVQAGGRLRLSCAASGYTFEGYAMGWDRQAPGKERELVAAISRSGGRRYYADSVKGRFTISRDNAKNTVYLQMNSLKPEDTAVYYWAAGGYYQRTRGYWGQGTQVTVSS | high polyreactivity |
| QVQLVESGGGLVQAGGRLRLSCADSGFTFDANAMGWYRQAPGKEPELVAAISLSDGSTYYADSVKGRFTISRDNAKNTVYLQMNSLKPEDTAVYYCNAERFGSGLAWLLFDYWGQGTQVTVSS | low polyreactivity |
| QVQLVESGGGLVQAGGRLRLSCADSGRTFPLYVMGWYRQAPGKERELVAAISARGGSTYYADSVKGRFTISRDNAKNTVYLQMNSLKPEDTAVYYCATLVTNGRYDSWGQGTQVTVSS | high polyreactivity |
| QVQLVESGGGLVQAGGRLRLSCAPSGLIFQHNSMGWYRKATGKERELVASITWDGGSTYYADSVKGRFTISRDNAKNTVYLQMNSLKPEDTAVYYCAARFDSFWVEYDYWGQGTQVTVSS | low polyreactivity |
| QVQLVESGGGLVQAGGRLRLSCDASGITFISNTMGWSRQAPGKERELVAAISWTGGSTYYADSVKGRFTISRDNAKNTVYLQMNSQKPEDTAVYYCNAVRYYVYSTQYDYWGEGTQVTVSS | high polyreactivity |
| QVQLVESGGGLVQAGGRLRLSCDASGRIFTYNAMGWYRQAPGKERELVGAITFSGGGTYYADSVKGRFTISRDNAKNTVYLVMTSLKPEDTAVYYCNQVSFGYSTYGYWGQGTQVTVSS | low polyreactivity |
| QVQLVESGGGLVQAGGRLRLSCDASGSTFVKYAMGWYRQAPGKERELVARISSSGGSTYYADSVKGRFTISRDNAKNTVFLQMNSLKPEDTAVYYCAAPSLIAKYDYWGQGTHVTVSS | high polyreactivity |
| QVQLVESGGGLVQAGGRLRLSCVASGSIFSGNAMGWYRQARGKERELVAAITRSGTSTYYADSVKGRFTISRDNAKNTVYLQMNSVKPEDTAVYYCATQYGRQRRAMYYWGQGTQVTVTS | high polyreactivity |
| QVQLVESGGGLVQAGGRLRLSFAASGLTFWWYAMGWYRQAPGKERELVAAIDSADITNYADSVKGRFTISRDNAKNTVYLQMNSLKPEDTAVYYCAAGRDYYVVNYVLFLFDYWGQGTQVTVSS | high polyreactivity |
| QVQLVESGGGLVQAGGRLRLSSAASGFTLVLNAMGWYIPAPGKERELVAAIRRSAGSTYYADSVKGRFTISRDNAKNTVYLQMNRLKPEDTAVYYCAAGFLWAKYAYGHWGQATQVTVSS | low polyreactivity |
| QVQLVESGGGLVQAGGRLRLSSAASGSTFHGYAMGWYRQEPGKERELVAAITSGDSTNYADSVKGRFTISRDNAKKTVYLQMNSLKPEDTAVYDCNAEGSSVLTGYWGYPPYWDTYVYWGQGTQVTVSA | low polyreactivity |
| QVQLVESGGGLVQAGGRLRLSSDASGLTFPTNAMGRYRQAHGKETEFVAAITSRGGTTYYADSVKGRFTISRDNAKNTVYLQMNSLKPEDTAVYYCAALSVTIYQSYRYGYWGQGTQVTVSS | low polyreactivity |
| QVQLVESGGGLVQAGGRLRLTCAASGITFTGNAMGWYRQAPGKERELVAVITSGGSTYYADSVKGRFTISRDNAKNTVYLQMNSLKPEDTAVYYCAAPVYYYYSKAMDYWGQGTQVTVSS | high polyreactivity |
| QVQLVESGGGLVQAGGRLRLTCAASGLTFYSYAMRCYRQAPAKERELVAAISWTGGSTYYADSEKGRFTISRDNAKNTVYLQMNSLKPEDTAVYYCAAVDYWVSGDYYWGQGTQVTVSS | high polyreactivity |
| QVQLVESGGGLVQAGGRLRVSCAASGFTFNCYTMGGSRQAPGKERELVAAITWSGGSTYYADSVKGRFTISRDNAKNSVYLQMNSLIPEDTAVYYCAVYPYGSQYYALDYWGQGTQVTVSS | high polyreactivity |
